One test concerns the target Bcl-xL, Q07817. In words: peptide SPOT array, c-Myc-tagged receptor at 1 uM or 100 nM, anti-c-Myc-Cy3.
A further test concerns the target T1, Mcl-1, Q07820.
T1 chain: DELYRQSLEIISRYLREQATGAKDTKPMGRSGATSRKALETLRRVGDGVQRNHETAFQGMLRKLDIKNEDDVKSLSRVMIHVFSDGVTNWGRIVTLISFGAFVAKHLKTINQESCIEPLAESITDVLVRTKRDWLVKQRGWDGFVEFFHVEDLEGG
Described as above.

Bcl-xL, Q07817, sequence (Q07817 1-209): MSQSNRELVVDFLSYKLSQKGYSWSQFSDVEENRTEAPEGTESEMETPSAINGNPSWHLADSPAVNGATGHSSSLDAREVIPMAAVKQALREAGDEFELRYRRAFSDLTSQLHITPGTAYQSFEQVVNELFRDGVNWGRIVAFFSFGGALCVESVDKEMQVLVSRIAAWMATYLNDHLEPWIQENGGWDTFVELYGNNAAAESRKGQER

In the case of QLSKPGAALYLQSIGEGFKEAVQYVL [SOS1], the SPOT signal as a fraction of Bim BH3's signal on the same receptor and array came out at 0.02 with Bcl-xL, Q07817 and 0.02 in the test with Mcl-1, Q07820.

As to DLLGMVVVDEDHMLGDSHRGYLLELL [POLQ], the SPOT signal as a fraction of Bim BH3's signal on the same receptor and array was 0.02 with Bcl-xL, Q07817 and 0.02 in the test with Mcl-1, Q07820.

Consider ITVVGDVGGRIAIILDDIIDDVESFV [PRPSAP1], for which the SPOT signal as a fraction of Bim BH3's signal on the same receptor and array turned out to be 0.02 with Bcl-xL, Q07817 and 0.02 with Mcl-1, Q07820.

For SAGVPVRGVELQAALERFARCFGRTD [TIGD7], the SPOT signal as a fraction of Bim BH3's signal on the same receptor and array with Bcl-xL, Q07817 is 0.04; with Mcl-1, Q07820, 0.05.

Regarding LGLGELAGLTDANEADSLTYDIANNK [STRN], the SPOT signal as a fraction of Bim BH3's signal on the same receptor and array in the test with Bcl-xL, Q07817 came out at 0.01; with Mcl-1, Q07820 it was 0.01.

As for RIEMWISILEDNELGEYAAVELHQAK [KIF13A], the SPOT signal as a fraction of Bim BH3's signal on the same receptor and array is 0.03 in the test with Bcl-xL, Q07817 and 0.02 with Mcl-1, Q07820.

Consider RHFVIRRGQVDREIAEEYGGVMVSFP [HDLBP], for which the SPOT signal as a fraction of Bim BH3's signal on the same receptor and array with Bcl-xL, Q07817 is 0.02; with Mcl-1, Q07820, 0.03.

Regarding QRLINLVGESLRLLLNTFVALSDLRC [BAT3], the SPOT signal as a fraction of Bim BH3's signal on the same receptor and array worked out at 0.08 with Bcl-xL, Q07817 and 0.03 with Mcl-1, Q07820.

Turning to GLTWDPVGKYIASQLDDRSLKVWRTL [HIRA], the SPOT signal as a fraction of Bim BH3's signal on the same receptor and array with Bcl-xL, Q07817 stood at 0.86; with Mcl-1, Q07820 it was 0.55.

On to SQGDKRVAFFMRKGLDCLSKWVGESE [ATAD2], for which the SPOT signal as a fraction of Bim BH3's signal on the same receptor and array with Bcl-xL, Q07817 came to 0.06; with Mcl-1, Q07820, 0.03.

As to VFDDLRGSVSLSWVLDSTGVILVLTT [SORT1], the SPOT signal as a fraction of Bim BH3's signal on the same receptor and array in the test with Bcl-xL, Q07817 stood at 0.01; with Mcl-1, Q07820, 0.02.

As to AKFLLYLGHSLSTWLDRMWHFAVSVF [SLC40A1], the SPOT signal as a fraction of Bim BH3's signal on the same receptor and array in the test with Bcl-xL, Q07817 was 0.12; in the test with Mcl-1, Q07820, 0.07.

On to GKPETCTGQDDADLGDRLRDWFQLLH [SPOCK2], for which the SPOT signal as a fraction of Bim BH3's signal on the same receptor and array in the test with Bcl-xL, Q07817 was 0.01; with Mcl-1, Q07820, 0.01.

IQQDLGCGASDGVISDNLLVTGGQGC: the SPOT signal as a fraction of Bim BH3's signal on the same receptor and array stood at 0.01 with Bcl-xL, Q07817 and 0.01 with Mcl-1, Q07820.

Consider FRFAQLCGLHIVIHADELEELMCYYQ [CLTCL1], for which the SPOT signal as a fraction of Bim BH3's signal on the same receptor and array in the test with Bcl-xL, Q07817 stood at 0.02; with Mcl-1, Q07820, 0.02.

In the case of SALETQVAAADQALADDYLAQLSLEP [TRO], the SPOT signal as a fraction of Bim BH3's signal on the same receptor and array with Bcl-xL, Q07817 is 0.01; with Mcl-1, Q07820 it was 0.01.

Turning to EKVLIFGGDILKFALDALLALWRVER [ADCY10], the SPOT signal as a fraction of Bim BH3's signal on the same receptor and array was 0.04 in the test with Bcl-xL, Q07817 and 0.03 in the test with Mcl-1, Q07820.

For the molecule VEQFSEASQQMAELLEVLVLRLENYE [HAP1], the SPOT signal as a fraction of Bim BH3's signal on the same receptor and array in the test with Bcl-xL, Q07817 is 0.02; in the test with Mcl-1, Q07820, 0.02.

As to ISDVQVFGYSDRFNADLLRSAVQQVN [DBC1], the SPOT signal as a fraction of Bim BH3's signal on the same receptor and array came out at 0.02 in the test with Bcl-xL, Q07817 and 0.02 in the test with Mcl-1, Q07820.

Turning to SKFVILSAHKLVFILDTLTRQVTAQD [NEDD9], the SPOT signal as a fraction of Bim BH3's signal on the same receptor and array with Bcl-xL, Q07817 was found to be 0.06; in the test with Mcl-1, Q07820 it was 0.04.

Turning to VILADPDGHEICFVLDEAFRELSKMD [GLOD4], the SPOT signal as a fraction of Bim BH3's signal on the same receptor and array came out at 0.02 with Bcl-xL, Q07817 and 0.02 in the test with Mcl-1, Q07820.

KKCQDMIMTEDTNAGDDVVVFYNDKA [ITPR3]: the SPOT signal as a fraction of Bim BH3's signal on the same receptor and array with Bcl-xL, Q07817 was determined as 0.02; with Mcl-1, Q07820 it was 0.01.

For IVGGCVVGIADARFADFIRGMLKLIL [DIRC2], the SPOT signal as a fraction of Bim BH3's signal on the same receptor and array with Bcl-xL, Q07817 stood at 0.15; with Mcl-1, Q07820, 0.14.

As to AVLCVECGYKYRFFGEDAEIAARELN [MSH3], the SPOT signal as a fraction of Bim BH3's signal on the same receptor and array in the test with Bcl-xL, Q07817 worked out at 0.01; with Mcl-1, Q07820, 0.01.

On to SVRYYPSGDAFASGLDDATCRLYDLR [GNB5], for which the SPOT signal as a fraction of Bim BH3's signal on the same receptor and array stood at 0.02 with Bcl-xL, Q07817 and 0.02 with Mcl-1, Q07820.

For IQQDLGCGASLGVILDNLLVTGGQGC, the SPOT signal as a fraction of Bim BH3's signal on the same receptor and array is 0.01 in the test with Bcl-xL, Q07817 and 0.01 with Mcl-1, Q07820.

Turning to RVSWNITGTVDASSGDDGCVRLWKAN [SEH1L], the SPOT signal as a fraction of Bim BH3's signal on the same receptor and array is 0.07 in the test with Bcl-xL, Q07817 and 0.03 with Mcl-1, Q07820.

As for RGAMLSLATGLAHSLSDLSLLVPEIE [FAM115A], the SPOT signal as a fraction of Bim BH3's signal on the same receptor and array was 0.06 with Bcl-xL, Q07817 and 0.05 with Mcl-1, Q07820.
